Results taken from IntAct's records for PubMed 30354839.

B1: RNA-binding protein Raly (Homo sapiens), Q9UKM9 (parent)
chain: MSLKLQASNVTNKNDPKSINSRVFIGNLNTALVKKSDVETIFSKYGRVAGCSVHKGYAFVQYSNERHARAAVLGENGRVLAGQTLDINMAGEPKPDRPKGLKRAASAIYSGYIFDYDYYRDDFYDRLFDYRGRLSPVPVPRAVPVKRPRVTVPLVRRVKTNVPVKLFARSTAVTTSSAKIKLKSSELQAIKTELTQIKSNIDALLSRLEQIAAEQKANPDGKKKGDGGGAGGGGGGGGSGGGGSGGGGGGGSSRPPAPQENTTSEAGLPQGEARTRDDGDEEGLLTHSEEELEHSQDTDADDGALQ
B2: RNA-binding protein FUS (Homo sapiens), P35637 (parent)
chain: MASNDYTQQATQSYGAYPTQPGQGYSQQSSQPYGQQSYSGYSQSTDTSGYGQSSYSSYGQSQNTGYGTQSTPQGYGSTGGYGSSQSSQSSYGQQSSYPGYGQQPAPSSTSGSYGSSSQSSSYGQPQSGSYSQQPSYGGQQQSYGQQQSYNPPQGYGQQNQYNSSSGGGGGGGGGGNYGQDQSSMSSGGGSGGGYGNQDQSGGGGSGGYGQQDRGGRGRGGSGGGGGGGGGGYNRSSGGYEPRGRGGGRGGRGGMGGSDRGGFNKFGGPRDQGSRHDSEQDNSDNNTIFVQGLGENVTIESVADYFKQIGIIKTNKKTGQPMINLYTDRETGKLKGEATVSFDDPPSAKAAIDWFDGKEFSGNPIKVSFATRRADFNRGGGNGRGGRGRGGPMGRGGYGGGGSGGGGRGGFPSGGGGGGGQQRAGDWKCPNPTCENMNFSWRNECNQCKAPKPDGPGGGPGGSHMGGNYGDDRRGGRGGYDRGGYRGRGGDRGGFRGGRGGGDRGGFGPGKMDSRGEHRQDRRERPY

How the values were obtained:
fus_human FUS, P35637 = variants of: B1; details: with fus_human FUS
raly_mouse Raly, Q64012 = variants of: B2; details: with raly_mouse Raly
raly_mouse Raly, Q64012, sequence (Q64012 whole entry): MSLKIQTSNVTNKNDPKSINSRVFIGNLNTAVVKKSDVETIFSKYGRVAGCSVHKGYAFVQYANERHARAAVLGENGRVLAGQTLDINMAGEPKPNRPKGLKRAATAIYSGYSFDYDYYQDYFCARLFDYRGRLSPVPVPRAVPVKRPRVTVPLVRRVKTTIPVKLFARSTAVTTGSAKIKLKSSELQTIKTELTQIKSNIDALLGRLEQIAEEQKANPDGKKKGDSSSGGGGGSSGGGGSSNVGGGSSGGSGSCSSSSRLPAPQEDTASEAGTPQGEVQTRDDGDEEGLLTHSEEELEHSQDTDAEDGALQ

raly_human RALY, Q9UKM9 = variants of: B2; details: with raly_human RALY

Variant | effect of a mutation on the interaction (fus_human FUS, P35637) | effect of a mutation on the interaction (raly_mouse Raly, Q64012) | effect of a mutation on the interaction (raly_human RALY, Q9UKM9)
P148A;R149A | with no effect | – | –
MASNDYTQQATQSYGAYPTQPGQGYSQQSSQPYGQQSYSGYSQSTDTSGYGQSSYSSYGQSQNTGYGTQSTPQGYGSTGGYGSSQSSQSSYGQQSSYPGYGQQPAPSSTSGSYGSSSQSSSYGQPQSGSYSQQPSYGGQQQSYGQQQSYNPPQGYGQQNQYNSSSGGGGGGGGGGNYGQDQSSMSSGGGSGGGYGNQDQSGGGGSGGYGQQDRGGRGRGGSGGGGGGGGGGYNRSSGGYEPRGRGGGRGGRGGMGGSDRGGFNKFGGPRDQGSRHDSEQDNSDNNTIFVQGLGENVTIESVADYFKQIGIIKTNKKTGQPMINLYTDRETGKLKGEATVSFDDPPSAKAAIDWFDGKEFSGNPIKVSFATRRADFNRGGGNGRGGRGRGGPMGRGGYGGGGSGGGGRGGFPSGGGGGGGQQRAGDWKCPNPTCENMNFSWRNECNQCKAPKPDGPGGGPGGSHMGGNYGDDRRGGRGGYDRGGYRGRGGDRGGFRGGRGGGDRGGFGPGKMDSRGEHRQDHRERPY [R521H] | – | with no effect | with no effect
MASNDYTQQATQSYGAYPTQPGQGYSQQSSQPYGQQSYSGYSQSTDTSGYGQSSYSSYGQSQNTGYGTQSTPQGYGSTGGYGSSQSSQSSYGQQSSYPGYGQQPAPSSTSGSYGSSSQSSSYGQPQSGSYSQQPSYGGQQQSYGQQQSYNPPQGYGQQNQYNSSSGGGGGGGGGGNYGQDQSSMSSGGGSGGGYGNQDQSGGGGSGGYGQQDRGGRGRGGSGGGGGGGGGGYNRSSGGYEPRGRGGGRGGRGGMGGSDRGGFNKFGGPRDQGSRHDSEQDNSDNNTIFVQGLGENVTIESVADYFKQIGIIKTNKKTGQPMINLYTDRETGKLKGEATVSFDDPPSAKAAIDWFDGKEFSGNPIKVSFATRRADFNRGGGNGRGGRGRGGPMGRGGYGGGGSGGGGRGGFPSGGGGGGGQQRAGDWKCPNPTCENMNFSWRNECNQCKAPKPDGPGGGPGGSHMGGNYGDDRRGGRGGYDRGGYRGRGGDRGGFRGGRGGGDRGGFGPGKMDSRGEHRQDCRERPY [R521C] | – | with no effect | with no effect
MASNDYTQQATQSYGAYPTQPGQGYSQQSSQPYGQQSYSGYSQSTDTSGYGQSSYSSYGQSQNTGYGTQSTPQGYGSTGGYGSSQSSQSSYGQQSSYPGYGQQPAPSSTSGSYGSSSQSSSYGQPQSGSYSQQPSYGGQQQSYGQQQSYNPPQGYGQQNQYNSSSGGGGGGGGGGNYGQDQSSMSSGGGSGGGYGNQDQSGGGGSGGYGQQDRGGRGRGGSGGGGGGGGGGYNRSSGGYEPRGRGGGRGGRGGMGGSDRGGFNKFGGPRDQGSRHDSEQDNSDNNTIFVQGLGENVTIESVADYFKQIGIIKTNKKTGQPMINLYTDRETGKLKGEATVSFDDPPSAKAAIDWFDGKEFSGNPIKVSFATRRADFNRGGGNGRGGRGRGGPMGRGGYGGGGSGGGGRGGFPSGGGGGGGQQRAGDWKCPNPTCENMNFSWRNECNQCKAPKPDGPGGGPGGSHMGGNYGDDRRGGRGGYDRGGYRGRGGDRGGFRGGRGGGDRGGFGPGKMDSRGEHRQDRRERLY [P525L] | – | with no effect | with no effect
